Reference: publication PMC11189300, “Structure of the human KMN complex and implications for regulation of its assembly” (Nature Structural & Molecular Biology, 2024)

Tests used:
Experiment in all cases: cryo-EM structure; eight-subunit KMN (full-length Mis12C, SPC24 109–197/SPC25 92–224, ZWINT, KNL1 2,021–2,342), 0.3 mg/ml with 0.003% Triton; reconstruction at 4.5 Å; model fitted from known structures and AF2 predictions and refined against the map
Conditions in all cases: both partners purified
[1] = target: T1, DSN1 (subunit of Mis12C in the KMN structure) (human, UniProt Q9H410 1-356)
T1 construct: DSN1, human; also called DSN1^SORT-HIS; source: Tnao38 insect cells (baculovirus), co-expressed in Mis12C, purified (Talon, SEC)
T1 sequence (looked up): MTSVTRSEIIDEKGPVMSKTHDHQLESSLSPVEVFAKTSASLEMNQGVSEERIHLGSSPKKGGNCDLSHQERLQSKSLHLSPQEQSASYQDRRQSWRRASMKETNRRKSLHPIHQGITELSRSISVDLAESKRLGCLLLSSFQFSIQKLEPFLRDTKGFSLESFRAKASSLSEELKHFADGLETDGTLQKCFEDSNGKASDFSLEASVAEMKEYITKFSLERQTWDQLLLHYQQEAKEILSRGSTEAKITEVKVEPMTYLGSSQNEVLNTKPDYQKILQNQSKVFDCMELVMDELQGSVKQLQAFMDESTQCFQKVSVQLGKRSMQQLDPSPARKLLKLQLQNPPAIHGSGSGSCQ

[2] = target: T2, NSL1 (subunit of Mis12C in the KMN structure) (human, UniProt Q96IY1 1-281)
T2 construct: NSL1, human; source: Tnao38 insect cells (baculovirus), co-expressed in Mis12C, purified (Talon, SEC)
T2 sequence (looked up): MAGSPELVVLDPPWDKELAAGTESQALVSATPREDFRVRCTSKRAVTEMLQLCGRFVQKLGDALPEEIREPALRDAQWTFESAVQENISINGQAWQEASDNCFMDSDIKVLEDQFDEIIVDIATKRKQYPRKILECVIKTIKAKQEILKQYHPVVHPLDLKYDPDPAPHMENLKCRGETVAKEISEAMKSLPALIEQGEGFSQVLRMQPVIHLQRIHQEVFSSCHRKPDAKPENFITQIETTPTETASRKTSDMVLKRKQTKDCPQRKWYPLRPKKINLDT

[3] = target: T3, SPC25_(92–224) (human, UniProt Q9HBM1 92-224)
T3 construct: SPC25, human, residues 92–224 (RWD domain); source: E. coli BL21(DE3)-codon-plus-RIPL, co-purified with SPC24 (glutathione-agarose, 3C protease, SEC)
T3 sequence (looked up): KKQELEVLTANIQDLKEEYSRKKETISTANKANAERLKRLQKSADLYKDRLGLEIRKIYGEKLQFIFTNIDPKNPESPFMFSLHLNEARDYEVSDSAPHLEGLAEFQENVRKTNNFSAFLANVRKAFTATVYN

Measured: binding result

B1: SPC24_(109–197) (domain or fragment, human, UniProt Q8NBT2 109-197, looked up)
chain: EELKEIEADLERQEKEVDEDTTVTIPSAVYVAQLYHQVSKIEWDYECEPGMVKGIHHGPSVAQPIHLDSTQLSRKFISDYLWSLVDTEW
notes: source: E. coli BL21(DE3)-codon-plus-RIPL, co-purified with SPC25 (glutathione-agarose, 3C protease, SEC)
binds: all assays above
